Target: CD16 (Fc receptor on NK cells) (human) (UniProt P08637)
Experiment: cell-based or functional assay

Sequence of UniProt P08637 (P08637 17-254): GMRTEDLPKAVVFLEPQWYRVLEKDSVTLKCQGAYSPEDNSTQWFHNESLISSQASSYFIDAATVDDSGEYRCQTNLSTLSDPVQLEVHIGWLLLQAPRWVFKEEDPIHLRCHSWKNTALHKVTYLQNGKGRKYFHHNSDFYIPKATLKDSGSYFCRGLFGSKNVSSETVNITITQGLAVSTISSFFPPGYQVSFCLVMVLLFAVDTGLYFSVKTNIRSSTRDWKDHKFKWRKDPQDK

- % of CD69+ cells among total NK cells, 7-day CLL PBMC culture, RTX 10 ug/mL (untreated median 35.75%): 65.2%
- median % of proliferating NK cells (CFSE dilution), 7-day CLL culture, antibody alone: 14.8%
- median % of proliferating NK cells (CFSE dilution), 7-day CLL culture, antibody plus IL-15 10 ng/mL (IL-15 alone 42.25%): 53.8%
Substance: rituximab (antibody)
- median % of viable CD19+/CD5+ B leukemic cells compared to untreated, 7 days, antibody alone: 79.5%
- median % of viable CD19+/CD5+ B leukemic cells compared to untreated, 7 days, antibody plus IL-15 10 ng/mL: 50.4%

Reference: patent US20150079023A1
